Sequences and labels used below:
T1: recombinant human B7-H3-his extracellular domain protein (UniProtKB-Q5ZPR3, 1 aa-461 aa) (human, UniProt Q5ZPR3 29-461)
T1 construct: range 1-461; The printed range 1-461 starts at residue 1 and so includes the signal peptide; also called Human B7-H3 ECD; recombinant human B7-H3-his protein; not shown: C-terminal his tag
T1 sequence (looked up): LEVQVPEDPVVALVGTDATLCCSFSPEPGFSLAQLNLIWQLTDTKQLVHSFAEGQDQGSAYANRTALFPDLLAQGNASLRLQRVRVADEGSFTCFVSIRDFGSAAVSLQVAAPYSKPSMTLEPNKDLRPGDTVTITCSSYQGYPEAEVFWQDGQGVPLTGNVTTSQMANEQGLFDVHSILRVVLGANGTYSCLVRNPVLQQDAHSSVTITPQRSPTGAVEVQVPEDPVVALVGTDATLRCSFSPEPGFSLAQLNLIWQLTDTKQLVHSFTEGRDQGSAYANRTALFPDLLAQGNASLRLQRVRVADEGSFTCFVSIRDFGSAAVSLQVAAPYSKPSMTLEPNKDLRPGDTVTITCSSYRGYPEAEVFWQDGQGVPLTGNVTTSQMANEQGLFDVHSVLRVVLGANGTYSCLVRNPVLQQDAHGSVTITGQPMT

B1: hz17A3-16 (antibody, human IgG1, kappa, V domains shown)
VH: EVQLVQSGAEVKKPGASVKVSCKASGYTFTDYALHWVRQAPGQGLEWMGLINTYSSSTNYNQKFKDRVTMTRDTSISTAYMELSRLRSEDTAVYYCARGITAVVGTRYYAMDYWGQGTLVTVSS
VL: EIVLTQSPGTLSLSPGERATLSCRASQSISNNLHWYQQKPGQAPRLLIKYTSQSISGIPDRFSGSGSGTDFTLTISRLEPEDFAVYYCQQSYSWPLTFGGGTKVEIKR
notes: hz17A3_VH5 + hz17A3_VL6; human IgG1, kappa
B2: hz17A3-20 (antibody, human IgG1, kappa, V domains shown)
VH: EVQLVQSGAEVKKPGASVKVSCKASGYTFTDYALHWVRQAPGQGLEWMGLINTYSSNTNYNQKFKDRVTMTRDTSISTAYMELSRLRSEDTAVYYCARGITAVVGTRYYAMDYWGQGTLVTVSS
VL: EIVLTQSPDFQSVTPKEKVTITCRASQSISNNLHWYQQKPDQSPKLLIKYTSQNISGVPSRFSGSGSGTDFTLTINSLEAEDAATYYCQQSYSWPLTFGGGTKVEIKR
notes: hz17A3_VH3 + hz17A3_VL8; human IgG1, kappa
B3: hz17A3-18 (antibody, human IgG1, kappa, V domains shown)
VH: EVQLVQSGAEVKKPGASVKVSCKASGYTFTDYALHWVRQAPGQGLEWMGLISTYSSNTNYNQKFKDRVTMTRDTSISTAYMELSRLRSEDTAVYYCARGITAVVGTRYYAMDYWGQGTLVTVSS
VL: EIVLTQSPGTLSLSPGERATLSCRASQSISSNLHWYQQKPGQAPRLLIKYTSQSISGIPDRFSGSGSGTDFTLTISRLEPEDFAVYYCQQSYSWPLTFGGGTKVEIKR
notes: hz17A3_VH4 + hz17A3_VL7; human IgG1, kappa
B4: hz17A3-22 (antibody, human IgG1, kappa, V domains shown)
VH: EVQLVQSGAEVKKPGASVKVSCKASGYTFTDYALHWVRQAPGQGLEWMGLINTYSSSTNYNQKFKDRVTMTRDTSISTAYMELSRLRSEDTAVYYCARGITAVVGTRYYAMDYWGQGTLVTVSS
VL: EIVLTQSPDFQSVTPKEKVTITCRASQSISNNLHWYQQKPDQSPKLLIKYTSQNISGVPSRFSGSGSGTDFTLTINSLEAEDAATYYCQQSYSWPLTFGGGTKVEIKR
notes: hz17A3_VH5 + hz17A3_VL8; human IgG1, kappa
B5: hz17A3-3 (antibody, human IgG1, kappa, V domains shown)
VH: QVQLVQSGAEVKKPGASVKVSCKASGYTFTDYALHWVRQAPGQGLEWMGLINTYSSNTNYNQKFKDRVTMTRDTSISTAYMELSRLRSDDTAVYYCARGITAVVGTRYYAMDYWGQGTLVTVSS
VL: EIVLTQSPDFQSVTPKEKVTITCRASQSISNNLHWYQQKPDQSPKLLIYYTSQNISGVPSRFSGSGSGTDFTLTINSLEAEDAATYYCQQSYSWPLTFGGGTKVEIKR
notes: hz17A3_VH1 + hz17A3_VL2; human IgG1, kappa
B6: hz17A3-17 (antibody, human IgG1, kappa, V domains shown)
VH: EVQLVQSGAEVKKPGASVKVSCKASGYTFTDYALHWVRQAPGQGLEWMGLINTYSSNTNYNQKFKDRVTMTRDTSISTAYMELSRLRSEDTAVYYCARGITAVVGTRYYAMDYWGQGTLVTVSS
VL: EIVLTQSPGTLSLSPGERATLSCRASQSISSNLHWYQQKPGQAPRLLIKYTSQSISGIPDRFSGSGSGTDFTLTISRLEPEDFAVYYCQQSYSWPLTFGGGTKVEIKR
notes: hz17A3_VH3 + hz17A3_VL7; human IgG1, kappa
B7: hz17A3-19 (antibody, human IgG1, kappa, V domains shown)
VH: EVQLVQSGAEVKKPGASVKVSCKASGYTFTDYALHWVRQAPGQGLEWMGLINTYSSSTNYNQKFKDRVTMTRDTSISTAYMELSRLRSEDTAVYYCARGITAVVGTRYYAMDYWGQGTLVTVSS
VL: EIVLTQSPGTLSLSPGERATLSCRASQSISSNLHWYQQKPGQAPRLLIKYTSQSISGIPDRFSGSGSGTDFTLTISRLEPEDFAVYYCQQSYSWPLTFGGGTKVEIKR
notes: hz17A3_VH5 + hz17A3_VL7; human IgG1, kappa
B8: hz17A3-21 (antibody, human IgG1, kappa, V domains shown)
VH: EVQLVQSGAEVKKPGASVKVSCKASGYTFTDYALHWVRQAPGQGLEWMGLISTYSSNTNYNQKFKDRVTMTRDTSISTAYMELSRLRSEDTAVYYCARGITAVVGTRYYAMDYWGQGTLVTVSS
VL: EIVLTQSPDFQSVTPKEKVTITCRASQSISNNLHWYQQKPDQSPKLLIKYTSQNISGVPSRFSGSGSGTDFTLTINSLEAEDAATYYCQQSYSWPLTFGGGTKVEIKR
notes: hz17A3_VH4 + hz17A3_VL8; human IgG1, kappa
B9: hz17A3-4 (antibody, human IgG1, kappa, V domains shown)
VH: QVQLVQSGAEVKKPGASVKVSCKASGYTFTDYALHWVRQAPGQGLEWIGLINTYSSNTNYNQKFKDRVTMTRDTSISTAYMELSRLRSDDTAVYYCARGITAVVGTRYYAMDYWGQGTLVTVSS
VL: EIVLTQSPDFQSVTPKEKVTITCRASQSISNNLHWYQQKPDQSPKLLIYYTSQNISGVPSRFSGSGSGTDFTLTINSLEAEDAATYYCQQSYSWPLTFGGGTKVEIKR
notes: hz17A3_VH2 + hz17A3_VL2; human IgG1, kappa
B10: hz9B11-1 (antibody, human IgG1, kappa)
heavy: not shown
light: EIVLTQSPGTLSLSPGERATLSCRASQSINNNLHWYQQKPGQAPRLLIYYASQSISGIPDRFSGSGSGTDFTLTISRLEPEDFAVYYCQQSHSWPYTFGQGTKLEIKRTVAAPSVFIFPPSDEQLKSGTASVVCLLNNFYPREAKVQWKVDNALQSGNSQESVTEQDSKDSTYSLSSTLTLSKADYEKHKVYACEVTHQGLSSPVTKSFNRGEC
notes: hz9B11_VH1 + hz9B11_VL1; human IgG1, kappa
B11: hz9B11-8 (antibody, human IgG1, kappa)
heavy: not shown
light: EIVLTQSPGTLSLSPGERATLSCRASQSINNNLHWYQQKPGQAPRLLIYYASQSISGIPDRFSGSGSGTDFTLTISRLEPEDFAVYFCQQSHSWPYTFGQGTKLEIKRTVAAPSVFIFPPSDEQLKSGTASVVCLLNNFYPREAKVQWKVDNALQSGNSQESVTEQDSKDSTYSLSSTLTLSKADYEKHKVYACEVTHQGLSSPVTKSFNRGEC
notes: hz9B11_VH2 + hz9B11_VL4; human IgG1, kappa
B12: hz9B11-2 (antibody, human IgG1, kappa)
heavy: not shown
light: EIVLTQSPGTLSLSPGERATLSCRASQSINNNLHWYQQKPGQAPRLLIYYASQSISGIPDRFSGSGSGTDFTLTISRLEPEDFAVYYCQQSHSWPYTFGQGTKLEIKRTVAAPSVFIFPPSDEQLKSGTASVVCLLNNFYPREAKVQWKVDNALQSGNSQESVTEQDSKDSTYSLSSTLTLSKADYEKHKVYACEVTHQGLSSPVTKSFNRGEC
notes: hz9B11_VH2 + hz9B11_VL1; human IgG1, kappa
B13: hz9B11-5 (antibody, human IgG1, kappa)
heavy: not shown
light: EIVLTQSPGTLSLSPGERATLSCRASQSINNNLHWYQQKPGQAPRLLIKYASQSISGIPDRFSGSGSGTDFTLTISRLEPEDFAVYYCQQSHSWPYTFGQGTKLEIKRTVAAPSVFIFPPSDEQLKSGTASVVCLLNNFYPREAKVQWKVDNALQSGNSQESVTEQDSKDSTYSLSSTLTLSKADYEKHKVYACEVTHQGLSSPVTKSFNRGEC
notes: hz9B11_VH1 + hz9B11_VL3; human IgG1, kappa
B14: hz9B11-9 (antibody, human IgG1, kappa)
heavy: not shown
light: EIVLTQSPGTLSLSPGERATLSCRASQSINNNLHWYQQKPGQAPRLLIKYASQSISGIPDRFSGSGSGTDFTLTISRLEPEDFAVYFCQQSHSWPYTFGQGTKLEIKRTVAAPSVFIFPPSDEQLKSGTASVVCLLNNFYPREAKVQWKVDNALQSGNSQESVTEQDSKDSTYSLSSTLTLSKADYEKHKVYACEVTHQGLSSPVTKSFNRGEC
notes: hz9B11_VH1 + hz9B11_VL5; human IgG1, kappa
B15: hz9B11-7 (antibody, human IgG1, kappa)
heavy: not shown
light: EIVLTQSPGTLSLSPGERATLSCRASQSINNNLHWYQQKPGQAPRLLIYYASQSISGIPDRFSGSGSGTDFTLTISRLEPEDFAVYFCQQSHSWPYTFGQGTKLEIKRTVAAPSVFIFPPSDEQLKSGTASVVCLLNNFYPREAKVQWKVDNALQSGNSQESVTEQDSKDSTYSLSSTLTLSKADYEKHKVYACEVTHQGLSSPVTKSFNRGEC
notes: hz9B11_VH1 + hz9B11_VL4; human IgG1, kappa
B16: hz9B11-10 (antibody, human IgG1, kappa)
heavy: not shown
light: EIVLTQSPGTLSLSPGERATLSCRASQSINNNLHWYQQKPGQAPRLLIKYASQSISGIPDRFSGSGSGTDFTLTISRLEPEDFAVYFCQQSHSWPYTFGQGTKLEIKRTVAAPSVFIFPPSDEQLKSGTASVVCLLNNFYPREAKVQWKVDNALQSGNSQESVTEQDSKDSTYSLSSTLTLSKADYEKHKVYACEVTHQGLSSPVTKSFNRGEC
notes: hz9B11_VH2 + hz9B11_VL5; human IgG1, kappa
B17: hz9B11-3 (antibody, human IgG1, kappa)
heavy: not shown
light: EIVLTQSPDFQSVTPKEKVTITCRASQSINNNLHWYQQKPDQSPKLLIKYASQSISGVPSRFSGSGSGTDFTLTINSLEAEDAATYYCQQSHSWPYTFGQGTKLEIKRTVAAPSVFIFPPSDEQLKSGTASVVCLLNNFYPREAKVQWKVDNALQSGNSQESVTEQDSKDSTYSLSSTLTLSKADYEKHKVYACEVTHQGLSSPVTKSFNRGEC
notes: hz9B11_VH1 + hz9B11_VL2; human IgG1, kappa
B18: hz9B11-4 (antibody, human IgG1, kappa)
heavy: not shown
light: EIVLTQSPDFQSVTPKEKVTITCRASQSINNNLHWYQQKPDQSPKLLIKYASQSISGVPSRFSGSGSGTDFTLTINSLEAEDAATYYCQQSHSWPYTFGQGTKLEIKRTVAAPSVFIFPPSDEQLKSGTASVVCLLNNFYPREAKVQWKVDNALQSGNSQESVTEQDSKDSTYSLSSTLTLSKADYEKHKVYACEVTHQGLSSPVTKSFNRGEC
notes: hz9B11_VH2 + hz9B11_VL2; human IgG1, kappa

This assay concerns the target T1, recombinant human B7-H3-his …. As to the kind of experiment: BLI (Octet QKe), antibody on AHC biosensor, B7-H3-his 60 nM in solution. The method, then: According to the mutation designs, site-directed mutagenesis was performed in the plasmids expressing the humanized light chains and heavy chains respectively using StarMut gene Site-directed Mutagenesis Kit (Cat.: T111-01, GenStar). The mutated plasmids were transformed into E. coli cells for expansion, and plasmids expressing the humanized and mutated light and heavy chains based on the antibodies 9B11, 10B4, and 17A3 were obtained. […] 5-6 days after cell transfection, culture supernatants were purified through ProA affinity chromatography column to obtain different humanized antibodies. Affinities of the antibodies were determined by an assay including capturing Fc fragments of the antibodies with anti-human IgG Fc capture (AHC) biosensors using Octet QKe system instrument from Fortebio. For the assay, each of the humanized antibodies and the chimeric antibodies based on the antibodies 9B11, 10B4, and 17A3 was diluted to 4 μg/ml in PBS, and was allowed to flow through the surface of an AHC biosensor (Cat.: 18-0015, PALL) for 300 s. Recombinant human B7-H3-his protein (Accession No.: UniProtKB-Q5ZPR3, 1 aa-461 aa) was used as a mobile phase, and its concentration was 60 nM. The association time was 100 s and the dissociation time was 300 s. When the assay was finished, data from which the response values of blank control had been deducted were fitted to a 1:1 Langmuir binding model using software, and then kinetic constants for antigen-antibody binding were calculated. The light and heavy chain combinations and the affinity constant KD values of the humanized and the mutant antibodies based on the antibodies 9B11, 10B4, and 17A3 are shown in Tables 6-8 respectively.
Take B1: the Kd worked out at 0.299 nM.

Take B2: the Kd was found to be 0.289 nM.

Regarding B3, the Kd was found to be 0.172 nM.

As to B4, the Kd was 0.479 nM.

B5: the Kd was found to be 0.598 nM.

Take B6: the Kd came to 0.0328 nM.

Take B7: the Kd stood at 0.411 nM.

As for B8, the Kd was determined as 0.433 nM.

B9: the Kd was 0.899 nM.

Regarding B10, the Kd turned out to be 4.52 nM.

With B11, the Kd was determined as 4.51 nM.

Consider B12, for which the Kd was found to be 6.28 nM.

Take B13: the Kd turned out to be 0.121 nM.

As to B14, the Kd turned out to be 0.107 nM.

With B15, the Kd was found to be 3.07 nM.

For the molecule B16, the Kd stood at 0.139 nM.

On to B17, for which the Kd was 0.118 nM.

In the case of B18, the Kd was found to be 0.141 nM.

Usually Kd stands for a measure of binding affinity in units of concentration.

For the origin of these results see patent US20250269047A1 (MABWELL SHANGHAI BIOSCIENCE, published 2025).
